The target of the assay is full-length human leucine-rich repeat kinase 1 (LRRK1, residues 1-2015) (human) (UniProt Q38SD2). The assay is described as follows: mass photometry; undiluted 'monomer' and 'dimer' gel filtration fractions added to detergent-free buffer (20 mM Tris, 150 mM NaCl, 5 mM MgCl2 pH 8.3); OneMP mass photometer; dimer fraction held monomers and dimers at approximately a 1:2 ratio, alongside higher-order species.

As for “full-length human leucine-rich repeat kinase 1 (LRRK1, residues 1-2015) (from UniProt Q38SD2 1-2015) (enzyme)”, the stoichiometry N was 2.

As usually defined, the stoichiometry N is the number of molecules, sites or subunits per partner or assembly.
